# In the RNAGym collection of RNA variant scans (doi:10.1073/pnas.2313332121):
# Fewer inactive variants are shown than the library holds.
# B1: TPR 5TU (parent)
# chain: GGAUCUUCUCGAUCUAACAAAAAAGACAAAUCUGCCACAAAGCUUGAGAGCAUCUUCGGAUGCAGAGGCGGCAGCCUUCGGUGGCGCGAUAGCGCCAACGUUCUCAACUAUGACACGCAAAACGCGUGCUCCGUUGAAUGGAGUUUAUCAUG
# Variants of: B1
# Test: polymerase ribozyme fitness, log enrichment relative to wild type (log ratio); higher = more active; in vitro selection for triplet polymerase activity
# Method in brief: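 In triplicate, a single round of in vitro selection was run on each mutant library, PCR-built and transcribed, covering one subunit of a heterodimeric triplet polymerase ribozyme. Frozen incubation at −7 °C followed annealing with a biotinylated primer, partner subunit and triplets, and extended constructs were then gel-excised, streptavidin-captured and taken through RT-PCR. Fitness is the logarithm of genotype enrichment over wild-type enrichment, from inverse-variance-weighted replicate averages of Illumina-sequenced inputs and outputs. […] only genotypes with ≥10 input reads and ≥1 read per output were kept.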
row,Variant,polymerase ribozyme fitness (log ratio)
1,C57A G92A,-3.13
2,C57A G92C,-0.41
3,U56A G84A A91G,-3.59
4,C57U G86U A97C,-1.82
5,G59C A60C C99U A119C,≤ -4.2
6,G58U U135G,-3.76
7,C57U G58A G83A G86A C118U C123A,-1.76
8,G58U C123U G124C,-0.593
9,C57G U61A G88A U104G,-4.19
10,C57U G71U,-1.94
11,G59A U135A G141U,-1.18
12,G58A G59U C87U G136A,0.169
13,G58C U82A,0.644
14,C57U A142U,0.471
15,U56A G136U,-2.72
16,C57A G58C G84A A91G,-3.28
17,C57G A60C G81C C103A U111G A119C,≤ -4.2
18,G59A A150U,0.933
19,C57U G59C C69G C96A,-1.45
20,G58A A73U,-1.65
21,U56A G94A,-1.28

row,Variant,polymerase ribozyme fitness (log ratio)
1,C57U U104C C116G A120U C123A,0.628
2,G58C G126U,-0.916
3,G59C A98U,0.166
4,G59A C93A G141C,-4.03
5,G58U U148A,-3.05
6,G59C C69A,-1.79
7,C57U C75G G81A C87G A120G,≤ -4.2
8,G59A G92A G128A,-4.02
9,C57U C116U U139C,≤ -4.2
10,C57A A91G C132G,-4.05
11,C57A A66G C87A,≤ -4.2
12,C57A G94C,0.0611
13,G59A A60G U134C,-0.132
14,G58A G83U A98U C103U,-1.15
15,G59C C96U,0.681
16,U56A G83A,-0.831
17,G59A G86U A97U C108G C116G G143C,≤ -4.2
18,U56A G83A C87U,-3.83
19,C57U A60U C95A C105U C125A,-2.41
20,U56C C87U A110G,-3.04
21,U56A G81U C93G,-3.18

row,Variant,polymerase ribozyme fitness (log ratio)
1,G59A G83C,-0.954
2,C57U C95A,-0.112
3,G58C G59A U102G A121U U127C,-3.85
4,G58A U82G C96A A142G A147G,-3.38
5,C57U G59A C75G A138G,-4.02
6,G58C C93A,-2.61
7,G59C C76A U78C C87A G94C C96U G100A U144A,≤ -4.2
8,U56G C57U C96U,-0.884
9,G58C C96U G128U,-3.69
10,G58U C96U,-0.236
11,G59C C95A C131G G136U,≤ -4.2
12,U56A U144C,0.537
13,C57A U90A C103G,≤ -4.2
14,U56A U78G G112C U139C,≤ -4.2
15,C57A A60C C96U C132A,-3.83
16,U56A G88C U145G,-4.05
17,G58A U146C,0.448
18,C57U C99G C105U,-1
19,G59A G133U G140C,-3.69
20,C57A C105U A120G,0.486
21,G58A G141C,-0.279

row,Variant,polymerase ribozyme fitness (log ratio)
1,G58A G141U,0.0168
2,C57U A64G,-3.91
3,G59A A97G,-0.633
4,G59C C87U U109G,-1.03
5,G59A C79A U82A C96A,-3.85
6,G58C C76A G86A A147U,-2.24
7,C57A C132U,-0.393
8,C57U C63A,0.923
9,G59A A138C U146C A150G,≤ -4.2
10,G59A A89U C95A A97U C99A C125G,≤ -4.2
11,C57U G59A G67A C93G,≤ -4.2
12,G59A A73G C93U A106G U144G U146C,-0.726
13,C57U A115G U144C,≤ -4.2
14,C57U G94U C99A,-1.79
15,C57G A91U A147U,≤ -4.2
16,G58U G71A A91U G92A G126A G133U,≤ -4.2
17,G59A G71U G84U G92A A115G C118G U144C C149G,≤ -4.2
18,G59A U61A C79U G83A A121C,≤ -4.2
19,C57U G68A,-3.56
20,G59A A89G,-1.1
